We go through ten molecules from patent publication US20080206268A1 (RIJKSUNIVERSITEIT TE LEIDEN, published 2008).

Assay [1] addresses HLA-A3 on HLA typed EBV-LCLs (human). The assay can be described thus: cell-based competition on acid-treated EBV-LCLs against 150 nM fluorescent reference peptide, flow cytometry. In general terms: Flow cytometry measures light scatter and fluorescence of single cells or particles in a stream.
Protocol: (§1) Immediately after mild acidic treatment, the cells were washed with 12 ml Iscove's modified Dulbecco's medium (IMDM, Bio Whittaker, Belgium) containing 2% FCS and resuspended in IMDM containing 2% FCS, 1.5 μg/ml β2 microglobulin (Sigma, St. Louis, Mo., US). […] The mean fluorescence expressed by the cells was determined by a FACScalibur flow cytometer (Becton-Dickinson, St. Louis, Mo., US).
For assay [2], the target named is HLA-B7 on HLA typed EBV-LCLs (human). The assay can be described thus: cell-based competition HLA peptide binding assay, flow cytometry.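 Also: cells given mild acid treatment, then held in medium with 2% FCS and β2 microglobulin, read out as mean cell fluorescence.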
Protocol: as §1
Assay [3] has as its target HLA-A11 on HLA typed EBV-LCLs (human). The description is as above.
Protocol: as §1
The target in assay [4] is HLA-A1 on HLA typed EBV-LCLs (human). The description is as above.
Protocol: as §1
In assay [5] the target is HLA-A24 on HLA typed EBV-LCLs (human). The assay is described as above.
Protocol: as §1
Assay [6] has as its target HLA-B60 on HLA typed EBV-LCLs (human). Kind of assay: cell-based competition on acid-treated EBV-LCLs against 150 nM fluorescent reference peptide, flow cytometry.
Protocol: as §1

As usually defined, the IC50 is the concentration that gives 50% inhibition.

With KQSSKALQR [HLA-A3 binder-positive control peptide KQSSKALQR], in assay [1], the half-maximal inhibitory concentration (IC50) turned out to be 9.4 µM.

B1: HA-1^H/R polymorphic region peptide No. 2, EKLKECVLR (peptide)
peptide: EKLKECVLR
notes: synthetic peptide; also called nonameric HA-1^R peptide
For the molecule B1, the binding result in assay [2], in assay [3], in assay [4] and in assay [5] was “no binding (tested: 100 to 0.78 µM)” in each case.

B2: peptide ECVLRDDLL (peptide)
peptide: ECVLRDDLL
notes: synthetic peptide; also called Peptide No. 12; nonameric HA-1^R peptide
In the case of B2, the binding result in assay [2], in assay [3], in assay [4] and in assay [5] was “no binding (tested: 100 to 0.78 µM)” in each case.

B3: decameric HA-1^R peptide VLRDDLLEAR (peptide)
peptide: VLRDDLLEAR
notes: synthetic peptide; also called Peptide No. 18
Molecule B3 yielded a 50% inhibitory concentration (IC50) in assay [1] of 37.5 µM.

B4: HA-1^H/R polymorphic region peptide No. 6, LKECVLRDD (peptide)
peptide: LKECVLRDD
notes: as for B1
Turning to B4, the binding result in assay [2], in assay [3], in assay [4] and in assay [5] was “no binding (tested: 100 to 0.78 µM)” throughout.

B5: HA-1^H/R polymorphic region peptide No. 20, LRDDLLEAR (peptide)
peptide: LRDDLLEAR
notes: as for B1
As for B5, the binding result in assay [2], in assay [3], in assay [4] and in assay [5] was “no binding (tested: 100 to 0.78 µM)” each time.

B6: HA-1^H/R polymorphic region peptide No. 4, KLKECVLRD (peptide)
peptide: KLKECVLRD
notes: as for B1
For the molecule B6, the binding result in assay [2], in assay [3], in assay [4] and in assay [5] was “no binding (tested: 100 to 0.78 µM)” each time.

B7: HA-1^H/R polymorphic region peptide No. 14, CVLRDDLLE (peptide)
peptide: CVLRDDLLE
notes: as for B1
Turning to B7, the binding result in assay [2], in assay [3], in assay [4] and in assay [5] was “no binding (tested: 100 to 0.78 µM)” each time.

B8: HA-1^H/R polymorphic region peptide No. 22, RDDLLEARR (peptide)
peptide: RDDLLEARR
notes: as for B1
Turning to B8, the binding result in assay [2], in assay [3], in assay [4] and in assay [5] was “no binding (tested: 100 to 0.78 µM)” in each case.

B9: nonameric HA-1^R peptide KECVLRDDL (peptide)
peptide: KECVLRDDL
notes: synthetic peptide; also called Peptide No. 8
As for B9, the binding result in assay [2], in assay [3], in assay [4] and in assay [5] was “no binding (tested: 100 to 0.78 µM)” each time. The same molecule yielded an IC50 in assay [6] of 3.9 µM.
